Test results: publication doi:10.1101/2021.03.09.434581
Where “and” joins values, the source holds several entries; their conditions need not be identical. Equal entries are not always repeated.

Key:
[1] = target: Vibrio cholerae ParD2 N-terminal domain as found in the crystal (Vibrio cholerae); assay: crystal structure
[2] = target: Vibrio cholerae ParD2 antitoxin, full length (Vibrio cholerae); assay: SEC-MALS
[3] = target: Vibrio cholerae ParD2 antitoxin, full length (Vibrio cholerae); assay: SEC-SAXS

Row | Substance | stoichiometry N [1] | stoichiometry N [2] | stoichiometry N [3]
1 | Vibrio cholerae ParD2 N-terminal domain as found in the crystal (domain or fragment) | 16 | – | –
2 | Vibrio cholerae ParD2 antitoxin, full length (natural protein) | – | 10 and 12 and 8 | 12
